# In PMC3398191:
# T1: Atl1 (MBP fusion cleaved with Factor Xa) (Schizosaccharomyces pombe, UniProt Q9UTN9 1-108)
# T1 sequence: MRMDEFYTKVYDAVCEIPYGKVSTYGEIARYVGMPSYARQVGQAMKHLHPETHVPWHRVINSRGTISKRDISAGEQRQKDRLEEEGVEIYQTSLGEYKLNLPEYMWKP
# B1: O6-CMG 23-mer duplex (dsDNA)
# DNA 1: GAACTGCAGCTCCGTGCTGGCCC
# DNA 2: GGGCCAGCACGGAGCTGCAGTTC
# modifications: O6-carboxymethylguanine at G6 of strand 1
# B2: O6-MeG 23-mer duplex (dsDNA)
# DNA 1: GAACTGCAGCTCCGTGCTGGCCC
# DNA 2: GGGCCAGCACGGAGCTGCAGTTC
# modifications: O6-methylguanine at G6 of strand 1
# B3: O6-PrG 23-mer duplex (dsDNA)
# DNA 1: GAACTGCAGCTCCGTGCTGGCCC
# DNA 2: GGGCCAGCACGGAGCTGCAGTTC
# modifications: O6-n-propylguanine at G6 of strand 1
# B4: G control 23-mer duplex (dsDNA)
# DNA 1: GAACTGCAGCTCCGTGCTGGCCC
# DNA 2: GGGCCAGCACGGAGCTGCAGTTC
# B5: O6-BTG 23-mer duplex (dsDNA)
# DNA 1: GAACTGCAGCTCCGTGCTGGCCC
# DNA 2: GGGCCAGCACGGAGCTGCAGTTC
# modifications: O6-(4-bromothenyl)guanine at G6 of strand 1
# B6: O6-HOEtG 23-mer duplex (dsDNA)
# DNA 1: GAACTGCAGCTCCGTGCTGGCCC
# DNA 2: GGGCCAGCACGGAGCTGCAGTTC
# modifications: O6-hydroxyethylguanine at G6 of strand 1
# B7: O6-PobG 23-mer duplex (dsDNA)
# DNA 1: GAACTGCAGCTCCGTGCTGGCCC
# DNA 2: GGGCCAGCACGGAGCTGCAGTTC
# modifications: O6-pyridyloxobutylguanine at G6 of strand 1
# B8: O6-EtG 23-mer duplex (dsDNA)
# DNA 1: GAACTGCAGCTCCGTGCTGGCCC
# DNA 2: GGGCCAGCACGGAGCTGCAGTTC
# modifications: O6-ethylguanine at G6 of strand 1
# B9: O6-BuG 23-mer duplex (dsDNA)
# DNA 1: GAACTGCAGCTCCGTGCTGGCCC
# DNA 2: GGGCCAGCACGGAGCTGCAGTTC
# modifications: O6-n-butylguanine at G6 of strand 1
# B10: O6-BnG 23-mer duplex (dsDNA)
# DNA 1: GAACTGCAGCTCCGTGCTGGCCC
# DNA 2: GGGCCAGCACGGAGCTGCAGTTC
# modifications: O6-benzylguanine at G6 of strand 1
# Molecular target: T1, Atl1 (MBP fusion cleaved with Factor Xa)
# Assay: EMSA
row,Binder,binding result
1,B1,binds
2,B2,binds
3,B3,binds
4,B4,no binding
5,B5,binds
6,B6,binds
7,B7,binds
8,B8,binds
9,B9,binds
10,B10,binds

# Molecular target: Maltose-binding protein (MBP) (UniProt P0AEX9 27-396)
# Assay: EMSA
row,Binder,binding result
1,B2,no binding
